From patent US20200181195A1 (NEC, published 2020) come the findings set out here.

Assay [1] has as its target T1, HLA-A*02:06 molecule (HLA-A*02:06 gene product) (human).
T1 construct: whole, on cells; MHC class I on RA2.6 cells (mouse RMAS transfected with HLA-A*02:06); The light chain is not described
Description: flow cytometry, RA2.6 cells (RMAS + HLA-A*02:06), peptide dilution series, BB7.2 staining. Here is the method:
Thereafter, the cells were cultured at 35° C. for 4 hours. […] A fluorescently labeled monoclonal antibody BB7.2, which specifically recognizes a peptide-binding HLA-A*02:06 molecule, was added thereto, incubation was carried out on ice for 20 minutes, and thus the cells were stained.
(§1) Thereafter, the amount of fluorescence per cell was measured using a flow cytometer, and a dissociation constant Kd value was calculated using a method that was reported in a paper (Udaka et al., Immunogenetics, 51, 816-828, 2000) by the inventors of the present invention.

For assay [2], the target named is T2, HLA-A*02:01 molecule (HLA-A*02:01 gene product) (human).
T2 construct: MHC class I on T2 cells with added purified b2m
Description: flow cytometry, T2 cells + purified b2m, peptide dilution series, BB7.2 staining. Here is the method: as §1
On the technique in general: A flow cytometer gives signals particle by particle.

In assay [3] the target is T3, HLA-A*24:02 molecule (HLA-A*24:02 gene product) (human).
T3 construct: MHC class I on acid-stripped C1R-A24 cells; The endogenous peptide and b2m were removed, then purified b2m was added
Description: flow cytometry, acid-stripped C1R-A24 cells + purified b2m, peptide dilution series, 17A12 staining. The protocol: First, C1R-A24 cells were exposed to acidic conditions at a pH of 3.3 for 30 seconds, and thus an endogenous peptide that originally binds to the HLA-A*24:02 molecule, and a light chain β2m, which is associated with HLA class-I molecules in common, were dissociated and removed. After neutralization, a purified β2m was added to C1R-A24 cells, and the obtained product was added to a series of dilutions of the peptide and incubated on ice for 4 hours. Staining was carried out using a fluorescently labeled monoclonal antibody 17A12, which recognizes association (MHC-pep) of the three members, that is, a HLA-A*24:02 molecule, a peptide, and β2m, which had reassociated during the incubation.
Thereafter, the MHC-pep count per C1R-A24 cell (proportional to the intensity of fluorescence of the above-mentioned fluorescent antibody) was quantitatively measured using a fluorescence-activated cell sorter FACScan (Becton-Dickinson). A binding-dissociation constant Kd value between the HLA-A*24:02 molecule and the peptide was calculated from the average intensity of fluorescence per cell using a method that was reported in a paper (Udaka et al., Immunogenetics, 51, 816-828, 2000) by the inventors of the present invention.

B1: AASRYNLTI (Seq. ID No. 5) (peptide)
peptide: AASRYNLTI
notes: Only the start position in MUC1 is printed; The end of the range follows from the length of 9 residues
For B1, the “Data of binding experiment (log Kd)” value is -3.82 log Kd in assay [1], -4.81 log Kd in assay [2] and -6.15 log Kd in assay [3].

B2: AFREGTINV (Seq. ID No. 4) (peptide)
peptide: AFREGTINV
notes: as for B1
For B2, in assay [3], the “Data of binding experiment (log Kd)” value is -5.83 log Kd.

B3: GQDVTSVPV (Seq. ID No. 11) (peptide)
peptide: GQDVTSVPV
notes: as for B1
As for B3, the “Data of binding experiment (log Kd)” value was -6.35 log Kd in assay [1] and -6.44 log Kd in assay [2].

B4: FSAQSGAGV (Seq. ID No. 12) (peptide)
peptide: FSAQSGAGV
notes: as for B1
On to B4, for which the “Data of binding experiment (log Kd)” value in assay [1] is -5.66 log Kd; in assay [2], -4.74 log Kd.

B5: GVPGWGIAL (Seq. ID No. 3) (peptide)
peptide: GVPGWGIAL
notes: as for B1
For the molecule B5, the results for the “Data of binding experiment (log Kd)” value in assay [1], in assay [2] and in assay [3] were -5.76 log Kd, -4.55 log Kd and -5.93 log Kd, respectively.

B6: HHSDTPTTL (Seq. ID No. 7) (peptide)
peptide: HHSDTPTTL
notes: as for B1
As for B6, the “Data of binding experiment (log Kd)” value in assay [3] is -5.87 log Kd.

B7: SVPVTRPAL (Seq. ID No. 2) (peptide)
peptide: SVPVTRPAL
notes: as for B1
As to B7, the “Data of binding experiment (log Kd)” value in assay [1] is -5.63 log Kd; in assay [2] it was -3.9 log Kd; in assay [3], -7.24 log Kd.

B8: LQRDISEMF (Seq. ID No. 6) (peptide)
peptide: LQRDISEMF
notes: as for B1
With B8, the figures for the “Data of binding experiment (log Kd)” value in assay [1] and in assay [3] were -4.26 log Kd and -6.65 log Kd, respectively.

B9: FLGLSNIKF (Seq. ID No. 1) (peptide)
peptide: FLGLSNIKF
notes: as for B1
In the case of B9, the results for the “Data of binding experiment (log Kd)” value in assay [1], in assay [2] and in assay [3] were -4.39 log Kd, -5.39 log Kd and -7.07 log Kd, respectively.

B10: STGVSFFFL (Seq. ID No. 10) (peptide)
peptide: STGVSFFFL
notes: as for B1
B10: the “Data of binding experiment (log Kd)” value in assay [1] is -5.21 log Kd; in assay [2], -5.12 log Kd; in assay [3] it was -5.17 log Kd.

B11: SFFFLSFHI (Seq. ID No. 8) (peptide)
peptide: SFFFLSFHI
notes: as for B1
Turning to B11, the “Data of binding experiment (log Kd)” value in assay [1] was -3.98 log Kd; in assay [3], -7.07 log Kd.

B12: TLAFREGTI (Seq. ID No. 9) (peptide)
peptide: TLAFREGTI
notes: as for B1
Turning to B12, the “Data of binding experiment (log Kd)” value was -3.09 log Kd in assay [1] and -5.97 log Kd in assay [3].
